Experimental data as given in patent publication US20030125257A1, “Assay for identifying beta secretase inhibitors” (priority 2001, published 2003).

Target: purified full-length human BACE with six C-terminal His residues, expressed in Sf9 insect cells (human) (UniProt P56817)
Assay: competitive radioligand binding assay, cholic acid against Tween-20 in the binding buffer

Chain of purified full-length human BACE with six C-terminal His residues, expressed in Sf9 insect cells (human) (P56817 other isoform, or with tags, fused parts or gaps limits assumed): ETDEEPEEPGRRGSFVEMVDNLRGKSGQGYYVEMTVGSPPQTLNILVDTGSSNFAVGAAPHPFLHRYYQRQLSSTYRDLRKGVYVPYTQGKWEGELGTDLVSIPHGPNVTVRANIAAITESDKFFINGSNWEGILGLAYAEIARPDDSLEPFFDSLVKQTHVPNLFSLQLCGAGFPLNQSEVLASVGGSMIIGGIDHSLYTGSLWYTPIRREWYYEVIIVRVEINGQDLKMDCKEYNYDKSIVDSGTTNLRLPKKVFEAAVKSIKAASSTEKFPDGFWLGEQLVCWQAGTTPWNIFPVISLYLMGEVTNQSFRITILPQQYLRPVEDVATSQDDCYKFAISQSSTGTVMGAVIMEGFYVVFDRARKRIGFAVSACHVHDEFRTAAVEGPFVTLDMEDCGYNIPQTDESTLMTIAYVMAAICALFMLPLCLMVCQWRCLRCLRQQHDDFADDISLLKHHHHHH

fold reduction of IC-50 with cholic acid compared to Tween-20: 3 to 4 times
Substance: peptide H-4848 (Bachem), described in Nature, 1999, 402, 537
